This passage reports Km, kcat and kcat/Km results from publication PMC4486171, “Ohr Protects Corynebacterium glutamicum against Organic Hydroperoxide Induced Oxidative Stress” (PLoS ONE, 2015).

Substrate in the data set: CC(C)(OO)c1ccccc1
In words: purified protein. The data set is classed as biochemical, Corynebacterium glutamicum. The note with it: 40 μM Lpd, 5 μM SucB, 0.2 mM NADPH, 0.1 μM Ohr, 50 mM sodium phosphate pH 7.4, 50 mM NaCl, 1 mM DTPA, 37°C.

B1: Ohr (Corynebacterium glutamicum ATCC 13032) (protein)
chain: MAIESIAYTSEALSTGSGRLGHVRSTDGALEFEMTPPKALGGSGEGTNPEQLFAVGYAACFHSAMHSVARSRKITLEDTAVGARVSIGPNGAGGFEIAVELEVSIPQLPQAEAQELADAAHQVCPYSNATRGNISVTVSVIDEEA
notes: N-terminal His6 tag (pET-28a), about 17 kDa on gel, E. coli BL21(DE3)
In general, Km refers to the concentration of substrate that gives half-maximal velocity. By kcat is commonly meant the maximal rate divided by the concentration of active sites. One may read the kcat/Km as the second-order rate constant that governs catalysis at low substrate concentration. Turning to B1, the Km turned out to be 17.48 ± 0.78 µM, the kcat amounted to 5.48 s⁻¹ and the kcat/Km came to 314300 ± 1420 M⁻¹ s⁻¹.
